B1: Nup133 (endogenous) (natural protein)
chain: MFPAAPSPRTPGTGSRRGPLAGLGPGSTPRTASRKGLPLGSAVSSPVLFSPVGRRSSLSSRGTPTRMFPHHSITESVNYDVKTFGSSLPVKVMEALTLAEVDDQLTINIDEGGWACLVCKEKLIIWKIALSPITKLSVCKELQLPPSDFHWSADLVALSYSSPSGEAHSTQAVAVMVATREGSIRYWPSLAGEDTYTEAFVDSGGDKTYSFLTAVQGGSFILSSSGSQLIRLIPESSGKIHQHILPQGQGMLSGIGRKVSSLFGILSPSSDLTLSSVLWDRERSSFYSLTSSNISKWELDDSSEKHAYSWDINRALKENITDAIWGSESNYEAIKEGVNIRYLDLKQNCDGLVILAAAWHSADNPCLIYYSLITIEDNGCQMSDAVTVEVTQYNPPFQSEDLILCQLTVPNFSNQTAYLYNESAVYVCSTGTGKFSLPQEKIVFNAQGDSVLGAGACGGVPIIFSRNSGLVSITSRENVSILAEDLEGSLASSVAGPNSESMIFETTTKNETIAQEDKIKLLKAAFLQYCRKDLGHAQMVVDELFSSHSDLDSDSELDRAVTQISVDLMDDYPASDPRWAESVPEEAPGFSNTSLIILHQLEDKMKAHSFLMDFIHQVGLFGRLGSFPVRGTPMATRLLLCEHAEKLSAAIVLKNHHSRLSDLVNTAILIALNKREYEIPSNLTPADVFFREVSQVDTICECLLEHEEQVLRDAPMDSIEWAEVVINVNNILKDMLQAASHYRQNRNSLYRREESLEKEPEYVPWTATSGPGGIRTVIIRQHEIVLKVAYPQADSNLRNIVTEQLVALIDCFLDGYVSQLKSVDKSSNRERYDNLEMEYLQKRSDLLSPLLSLGQYLWAASLAEKYCDFDILVQMCEQTDNQSRLQRYMTQFADQNFSDFLFRWYLEKGKRGKLLSQPISQHGQLANFLQAHEHLSWLHEINSQELEKAHATLLGLANMETRYFAKKKTLLGLSKLAALASDFSEDMLQEKIEEMAEQERFLLHQETLPEQLLAEKQLNLSAMPVLTAPQLIGLYICEENRRANEYDFKKALDLLEYIDEEEDININDLKLEILCKALQRDNWSSSDGKDDPIEVSKDSIFVKILQKLLKDGIQLSEYLPEVKDLLQADQLGSLKSNPYFEFVLKANYEYYVQGQI
B2: Nup98 (endogenous) (natural protein)
chain: MFNKSFGTPFGGGTGGFGTTSTFGQNTGFGTTSGGAFGTSAFGSSNNTGGLFGNSQTKPGGLFGTSSFSQPATSTSTGFGFGTSTGTANTLFGTASTGTSLFSSQNNAFAQNKPTGFGNFGTSTSSGGLFGTTNTTSNPFGSTSGSLFGPSSFTAAPTGTTIKFNPPTGTDTMVKAGVSTNISTKHQCITAMKEYESKSLEELRLEDYQANRKGPQNQVGAGTTTGLFGSSPATSSATGLFSSSTTNSGFAYGQNKTAFGTSTTGFGTNPGGLFGQQNQQTTSLFSKPFGQATTTQNTGFSFGNTSTIGQPSTNTMGLFGVTQASQPGGLFGTATNTSTGTAFGTGTGLFGQTNTGFGAVGSTLFGNNKLTTFGSSTTSAPSFGTTSGGLFGNKPTLTLGTNTNTSNFGFGTNTSGNSIFGSKPAPGTLGTGLGAGFGTALGAGQASLFGNNQPKIGGPLGTGAFGAPGFNTTTATLGFGAPQAPVALTDPNASAAQQAVLQQHINSLTYSPFGDSPLFRNPMSDPKKKEERLKPTNPAAQKALTTPTHYKLTPRPATRVRPKALQTTGTAKSHLFDGLDDDEPSLANGAFMPKKSIKKLVLKNLNNSNLFSPVNRDSENLASPSEYPENGERFSFLSKPVDENHQQDGDEDSLVSHFYTNPIAKPIPQTPESAGNKHSNSNSVDDTIVALNMRAALRNGLEGSSEETSFHDESLQDDREEIENNSYHMHPAGIILTKVGYYTIPSMDDLAKITNEKGECIVSDFTIGRKGYGSIYFEGDVNLTNLNLDDIVHIRRKEVVVYLDDNQKPPVGEGLNRKAEVTLDGVWPTDKTSRCLIKSPDRLADINYEGRLEAVSRKQGAQFKEYRPETGSWVFKVSHF

How the values were obtained:
Experiment in all cases: LacI/LacO array recruitment in cells
LacI-CFP-Nup50 = molecular target: T1, LacI-CFP-Nup50 (human, UniProt Q9UKX7 1-468)
T1 sequence: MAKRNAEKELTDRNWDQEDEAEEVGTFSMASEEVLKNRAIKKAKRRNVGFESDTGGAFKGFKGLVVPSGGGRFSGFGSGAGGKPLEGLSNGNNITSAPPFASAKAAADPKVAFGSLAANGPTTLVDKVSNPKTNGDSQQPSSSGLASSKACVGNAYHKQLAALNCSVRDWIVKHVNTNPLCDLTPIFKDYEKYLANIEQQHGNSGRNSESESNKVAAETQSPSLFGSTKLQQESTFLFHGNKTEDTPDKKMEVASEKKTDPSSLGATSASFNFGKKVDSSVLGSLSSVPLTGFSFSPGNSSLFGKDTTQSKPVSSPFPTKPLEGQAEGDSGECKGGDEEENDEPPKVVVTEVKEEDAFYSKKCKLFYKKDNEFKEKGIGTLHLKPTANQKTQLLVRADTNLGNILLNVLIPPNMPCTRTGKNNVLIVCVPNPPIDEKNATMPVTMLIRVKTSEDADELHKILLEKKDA

LacI-CFP-Nup214 = LacI-CFP-Nup214 (human, UniProt P35658 1-2090)
LacI-CFP-Nup153 = molecular target: T2, LacI-CFP-Nup153 (human, UniProt P49790 1-1475)
T2 sequence: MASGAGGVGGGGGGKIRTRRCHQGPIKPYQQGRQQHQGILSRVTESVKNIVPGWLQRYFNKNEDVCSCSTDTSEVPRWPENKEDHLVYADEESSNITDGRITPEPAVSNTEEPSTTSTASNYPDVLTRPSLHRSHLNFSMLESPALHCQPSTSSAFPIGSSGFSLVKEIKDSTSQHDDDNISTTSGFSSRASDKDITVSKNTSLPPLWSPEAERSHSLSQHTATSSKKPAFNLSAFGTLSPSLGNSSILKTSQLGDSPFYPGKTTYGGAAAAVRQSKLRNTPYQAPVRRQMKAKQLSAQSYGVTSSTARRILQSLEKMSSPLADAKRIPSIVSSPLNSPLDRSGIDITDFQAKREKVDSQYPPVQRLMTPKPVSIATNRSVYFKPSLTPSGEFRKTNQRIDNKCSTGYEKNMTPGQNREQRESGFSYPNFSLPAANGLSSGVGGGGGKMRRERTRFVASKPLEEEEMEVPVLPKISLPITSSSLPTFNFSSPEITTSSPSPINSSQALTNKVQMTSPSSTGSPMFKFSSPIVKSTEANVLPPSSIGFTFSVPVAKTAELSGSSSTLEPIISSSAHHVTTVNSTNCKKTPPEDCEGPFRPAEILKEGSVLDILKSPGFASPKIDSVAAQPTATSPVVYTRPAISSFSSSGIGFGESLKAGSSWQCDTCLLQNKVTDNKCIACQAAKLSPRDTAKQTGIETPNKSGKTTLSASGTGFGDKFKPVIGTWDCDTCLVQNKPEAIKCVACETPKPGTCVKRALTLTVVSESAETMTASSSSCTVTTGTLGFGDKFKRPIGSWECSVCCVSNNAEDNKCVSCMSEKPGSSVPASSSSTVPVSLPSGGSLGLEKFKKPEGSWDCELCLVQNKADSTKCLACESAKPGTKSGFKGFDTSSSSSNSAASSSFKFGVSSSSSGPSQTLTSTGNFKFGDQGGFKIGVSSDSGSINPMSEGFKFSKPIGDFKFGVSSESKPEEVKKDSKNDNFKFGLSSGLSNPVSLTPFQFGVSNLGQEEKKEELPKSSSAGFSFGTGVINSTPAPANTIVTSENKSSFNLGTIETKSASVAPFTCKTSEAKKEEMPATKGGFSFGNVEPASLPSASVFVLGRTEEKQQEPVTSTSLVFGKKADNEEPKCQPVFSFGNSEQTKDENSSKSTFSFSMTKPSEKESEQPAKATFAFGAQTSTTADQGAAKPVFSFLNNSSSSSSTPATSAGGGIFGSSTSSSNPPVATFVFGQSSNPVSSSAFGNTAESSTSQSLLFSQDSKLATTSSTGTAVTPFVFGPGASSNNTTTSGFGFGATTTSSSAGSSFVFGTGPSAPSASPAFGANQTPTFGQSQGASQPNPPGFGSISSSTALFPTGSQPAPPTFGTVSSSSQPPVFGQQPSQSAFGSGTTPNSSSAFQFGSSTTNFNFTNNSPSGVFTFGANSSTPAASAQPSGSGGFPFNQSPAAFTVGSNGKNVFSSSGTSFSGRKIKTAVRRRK

LacI-CFP-Nup107 = molecular target: T3, LacI-CFP-Nup107 (human, UniProt P57740 1-925)
T3 sequence: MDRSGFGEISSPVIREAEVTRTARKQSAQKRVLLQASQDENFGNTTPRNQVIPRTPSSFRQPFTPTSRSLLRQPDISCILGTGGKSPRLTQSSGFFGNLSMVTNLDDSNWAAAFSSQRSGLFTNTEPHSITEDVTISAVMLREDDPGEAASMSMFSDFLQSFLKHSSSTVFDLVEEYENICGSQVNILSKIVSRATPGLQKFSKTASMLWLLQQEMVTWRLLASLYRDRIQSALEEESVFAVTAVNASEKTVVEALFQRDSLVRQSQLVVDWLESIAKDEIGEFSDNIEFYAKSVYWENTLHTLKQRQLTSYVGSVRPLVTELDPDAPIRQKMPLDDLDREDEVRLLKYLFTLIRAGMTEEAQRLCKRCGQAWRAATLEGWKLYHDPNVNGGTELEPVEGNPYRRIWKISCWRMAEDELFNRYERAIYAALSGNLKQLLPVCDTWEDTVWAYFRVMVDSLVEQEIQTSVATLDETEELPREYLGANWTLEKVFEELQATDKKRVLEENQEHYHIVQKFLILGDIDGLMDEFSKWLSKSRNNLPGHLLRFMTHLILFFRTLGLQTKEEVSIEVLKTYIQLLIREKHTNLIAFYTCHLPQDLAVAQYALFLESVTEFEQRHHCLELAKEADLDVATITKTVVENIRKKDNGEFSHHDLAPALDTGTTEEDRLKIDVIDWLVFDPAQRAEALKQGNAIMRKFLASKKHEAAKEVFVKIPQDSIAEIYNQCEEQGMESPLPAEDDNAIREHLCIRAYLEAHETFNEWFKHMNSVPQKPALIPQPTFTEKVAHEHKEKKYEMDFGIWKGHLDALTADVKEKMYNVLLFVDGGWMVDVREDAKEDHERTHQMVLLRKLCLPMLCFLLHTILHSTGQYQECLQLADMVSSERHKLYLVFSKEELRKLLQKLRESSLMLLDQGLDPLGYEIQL

LacI-CFP-Nup133 = molecular target: T4, LacI-CFP-Nup133 (human, UniProt Q8WUM0 1-1156)
T4 sequence: B1 chain

Sequence of LacI-CFP-Nup214 (P35658 whole entry): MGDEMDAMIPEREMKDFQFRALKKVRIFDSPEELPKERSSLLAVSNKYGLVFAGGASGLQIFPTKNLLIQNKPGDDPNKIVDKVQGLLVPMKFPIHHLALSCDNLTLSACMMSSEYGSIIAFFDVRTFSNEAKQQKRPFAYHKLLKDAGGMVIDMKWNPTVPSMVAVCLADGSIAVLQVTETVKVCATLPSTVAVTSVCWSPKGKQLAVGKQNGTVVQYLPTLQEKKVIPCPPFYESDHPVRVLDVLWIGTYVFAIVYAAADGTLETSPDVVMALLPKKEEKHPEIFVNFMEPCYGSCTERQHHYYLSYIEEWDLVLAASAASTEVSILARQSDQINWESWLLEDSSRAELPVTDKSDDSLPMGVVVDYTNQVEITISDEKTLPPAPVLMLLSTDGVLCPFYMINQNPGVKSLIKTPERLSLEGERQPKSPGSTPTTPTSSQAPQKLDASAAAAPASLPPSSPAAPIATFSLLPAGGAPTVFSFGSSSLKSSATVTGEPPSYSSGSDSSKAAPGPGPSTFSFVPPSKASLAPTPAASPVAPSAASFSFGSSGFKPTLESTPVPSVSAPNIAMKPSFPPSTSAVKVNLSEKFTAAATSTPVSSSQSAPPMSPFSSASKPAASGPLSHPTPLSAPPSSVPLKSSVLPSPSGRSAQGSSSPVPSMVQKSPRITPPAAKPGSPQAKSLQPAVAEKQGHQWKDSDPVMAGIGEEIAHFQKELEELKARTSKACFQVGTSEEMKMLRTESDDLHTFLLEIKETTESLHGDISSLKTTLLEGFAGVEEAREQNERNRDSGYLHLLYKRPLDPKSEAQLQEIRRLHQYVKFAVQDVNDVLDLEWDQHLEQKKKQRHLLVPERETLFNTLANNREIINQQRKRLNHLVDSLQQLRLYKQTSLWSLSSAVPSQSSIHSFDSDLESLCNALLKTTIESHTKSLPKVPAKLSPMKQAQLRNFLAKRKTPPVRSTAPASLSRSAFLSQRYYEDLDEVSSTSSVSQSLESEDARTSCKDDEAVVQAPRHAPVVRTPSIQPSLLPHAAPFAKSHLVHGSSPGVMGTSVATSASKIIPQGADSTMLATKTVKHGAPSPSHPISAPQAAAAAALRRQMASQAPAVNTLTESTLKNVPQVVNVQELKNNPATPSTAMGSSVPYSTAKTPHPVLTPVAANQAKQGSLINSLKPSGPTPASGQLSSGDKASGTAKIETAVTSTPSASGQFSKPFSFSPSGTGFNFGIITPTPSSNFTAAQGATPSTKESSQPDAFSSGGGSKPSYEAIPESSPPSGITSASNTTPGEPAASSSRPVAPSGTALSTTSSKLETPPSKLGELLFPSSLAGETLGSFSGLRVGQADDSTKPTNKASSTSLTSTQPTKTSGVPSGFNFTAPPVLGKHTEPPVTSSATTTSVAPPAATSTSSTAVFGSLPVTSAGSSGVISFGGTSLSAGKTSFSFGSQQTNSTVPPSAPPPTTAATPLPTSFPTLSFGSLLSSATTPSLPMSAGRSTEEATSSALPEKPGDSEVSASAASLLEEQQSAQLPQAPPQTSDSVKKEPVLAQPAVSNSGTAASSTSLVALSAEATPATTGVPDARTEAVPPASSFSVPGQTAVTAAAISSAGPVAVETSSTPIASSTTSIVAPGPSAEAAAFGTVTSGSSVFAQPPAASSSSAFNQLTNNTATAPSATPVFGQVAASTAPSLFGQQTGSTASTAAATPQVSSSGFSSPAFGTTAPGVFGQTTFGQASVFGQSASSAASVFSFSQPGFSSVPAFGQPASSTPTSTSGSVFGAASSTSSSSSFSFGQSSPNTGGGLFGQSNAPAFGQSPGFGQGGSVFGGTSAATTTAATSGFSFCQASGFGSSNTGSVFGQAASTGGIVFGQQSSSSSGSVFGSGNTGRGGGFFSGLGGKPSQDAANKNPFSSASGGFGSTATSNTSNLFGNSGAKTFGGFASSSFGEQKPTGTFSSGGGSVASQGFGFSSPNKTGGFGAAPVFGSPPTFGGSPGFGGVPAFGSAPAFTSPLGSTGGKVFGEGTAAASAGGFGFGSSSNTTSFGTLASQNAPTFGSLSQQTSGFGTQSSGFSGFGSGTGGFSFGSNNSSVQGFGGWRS

Row | Binder | percent of transfected cells showing colocalization (LacI-CFP-Nup50) [%] | percent of transfected cells showing colocalization (LacI-CFP-Nup214) [%] | percent of transfected cells showing colocalization (LacI-CFP-Nup153) [%] | percent of transfected cells showing colocalization (LacI-CFP-Nup107) [%] | percent of transfected cells showing colocalization (LacI-CFP-Nup133) [%]
1 | B1 | 11 | 35 | 35 | 94 | –
2 | B2 | 11 | 90 | 11 | – | 70
